First the molecules themselves.
B1: TRAF3IP2 (parent)
chain: KQGSMNFRFIPVLFPNAKKEHVPT
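Note: lentivirally expressed fusions sorted by FACS into six bins by GFP to DsRed ratio, PSI derived from sequencing read proportions per bin multiplied by bin number.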

The variants in the series derive from B1. As to the kind of experiment: protein stability index of a GFP-peptide fusion (GPS, HEK-293T) (PSI 1-6); higher = more stable. The conditions noted are these: c terminus: a fixed tail appended.
Regarding MQGSMNFRFIPVLFPNAKKEHVPT [K1M], the protein stability index was 1.94. For the variant RQGSMNFRFIPVLFPNAKKEHVPT [K1R], the protein stability index turned out to be 2.31. With SQGSMNFRFIPVLFPNAKKEHVPT [K1S] the figure was 2.16; with FQGSMNFRFIPVLFPNAKKEHVPT [K1F], 2.23; with YQGSMNFRFIPVLFPNAKKEHVPT [K1Y], 2.57. As to IQGSMNFRFIPVLFPNAKKEHVPT [K1I], the protein stability index worked out at 1.63. With PQGSMNFRFIPVLFPNAKKEHVPT [K1P] the figure was 1.88; with EQGSMNFRFIPVLFPNAKKEHVPT [K1E], 2.7. For KQGSMNFRFIPVLFPNAWKEHVPT [K18W] the value was 1.65; for KQGSMNFRFIPVLFPNAAKEHVPT [K18A], 1.76; for KQGSMNFRFIPVLFPNADKEHVPT [K18D], 2.34.

As for KQGSMNFRFIPVLFPNAGKEHVPT [K18G], the protein stability index was 2.04.

With KQGSMNFRFIPVLFPNAPKEHVPT [K18P], the protein stability index came to 1.77. With KQGSMNFRFIPVLFPNAHKEHVPT [K18H], the protein stability index was 1.89. For KQGSMNFRFIPVLFPNAFKEHVPT [K18F] the value was 1.77; for KQGSMNFRFIPVLFPNAEKEHVPT [K18E], 2.15. KQGSMNFRFIPVLFPNANKEHVPT [K18N]: the protein stability index stood at 1.93. For KQGSMNFRFIPVLFPNAKKEHVIT [P23I] the value was 1.77; for KQGSMNFRFIPVLFPNAKKEHVLT [P23L], 2.16. With KQGSMNFRFIPVLFPNAKKEHVHT [P23H] the figure was 1.83; with KQGSMNFRFIPVLFPNAKKEHVMT [P23M], 1.78. With KQGSMNFSFIPVLFPNAKKEHVPT [R8S] the figure was 2.39; with KQGSMNFMFIPVLFPNAKKEHVPT [R8M], 1.88; with KQGSMNFVFIPVLFPNAKKEHVPT [R8V], 2.02. Regarding KQGSMNFDFIPVLFPNAKKEHVPT [R8D], the protein stability index amounted to 3.3.

Take KQGSMNFAFIPVLFPNAKKEHVPT [R8A]: the protein stability index amounted to 1.78. With KQGSMNFRFIPVLFTNAKKEHVPT [P15T] the figure was 2.54; with KQGSMNFRFIPVLFQNAKKEHVPT [P15Q], 1.41; with KQGSMNFRFIPVLFANAKKEHVPT [P15A], 1.66. For KQGSMNFRFIPVLFSNAKKEHVPT [P15S] the value was 1.75; for KQGSMNFRFIPVLFWNAKKEHVPT [P15W], 2.67; for KQGSMNFRFIPVLFNNAKKEHVPT [P15N], 1.87. With KQGSMNFRFIPVLFMNAKKEHVPT [P15M] the figure was 1.58; with KQGAMNFRFIPVLFPNAKKEHVPT [S4A], 2.68; with KQGGMNFRFIPVLFPNAKKEHVPT [S4G], 1.53.

Consider KQGVMNFRFIPVLFPNAKKEHVPT [S4V], for which the protein stability index was determined as 1.87. With KQGYMNFRFIPVLFPNAKKEHVPT [S4Y] the figure was 2.14; with KQGFMNFRFIPVLFPNAKKEHVPT [S4F], 1.5. With KQGSMNFRFIPVLFPNAKKEHVPA [T24A] the figure was 2.25; with KQGSMNFRFIPVLFPNAKKEHVPM [T24M], 1.87; with KQGSMNFRFIPVLFPNAKKEHVPR [T24R], 2.33. With KQGSMNFRFIPVLFPNAKKEHVPE [T24E] the figure was 2.35; with KQGSMNFRFIPVLFPNAKKEHVPS [T24S], 1.65. For the variant KQGSMNFRFIPVLFPNAKKEHVPY [T24Y], the protein stability index was 2.5.

KQGSMNFRFIPVLFPNAKKEHVPI [T24I]: the protein stability index is 1.7. For KQGSMNFRFIPILFPNAKKEHVPT [V12I] the value was 2.14; for KQGSMNFRFIPTLFPNAKKEHVPT [V12T], 1.86; for KQGSMNFRFIPALFPNAKKEHVPT [V12A], 2.31. With KQGSMNFRFIPPLFPNAKKEHVPT [V12P] the figure was 2.33; with KQGSMNFRFIPFLFPNAKKEHVPT [V12F], 2.14; with KQGSMNFRFIPKLFPNAKKEHVPT [V12K], 2.39. With KQGSMNFRFIPLLFPNAKKEHVPT [V12L] the figure was 2.12; with KQGSMNFRFIPVIFPNAKKEHVPT [L13I], 1.75; with KQGSMNFRFIPVAFPNAKKEHVPT [L13A], 1.66. With KQGSMNFRFIPVKFPNAKKEHVPT [L13K], the protein stability index turned out to be 2.06. For KQGSMNFRFIPVEFPNAKKEHVPT [L13E] the value was 2.88; for KQGSMNFRFIPVVFPNAKKEHVPT [L13V], 2.01; for KQGSMNFRFIPVHFPNAKKEHVPT [L13H], 2.38. For KQGSMNFRFIPVQFPNAKKEHVPT [L13Q] the value was 2.02; for KQGSMNFRFIPVTFPNAKKEHVPT [L13T], 1.86; for KQGSMNFRFIPVYFPNAKKEHVPT [L13Y], 1.82.

In the case of KQGSMNFRFIPVWFPNAKKEHVPT [L13W], the protein stability index stood at 2.09.

Turning to KQNSMNFRFIPVLFPNAKKEHVPT [G3N], the protein stability index was determined as 2.05. With KQSSMNFRFIPVLFPNAKKEHVPT [G3S], the protein stability index was determined as 1.82. With KQASMNFRFIPVLFPNAKKEHVPT [G3A] the figure was 1.9; with KQVSMNFRFIPVLFPNAKKEHVPT [G3V], 2.06.

Turning to KQMSMNFRFIPVLFPNAKKEHVPT [G3M], the protein stability index was found to be 1.75. KQQSMNFRFIPVLFPNAKKEHVPT [G3Q]: the protein stability index was found to be 1.85. For KQHSMNFRFIPVLFPNAKKEHVPT [G3H] the value was 2.01.

Take KQKSMNFRFIPVLFPNAKKEHVPT [G3K]: the protein stability index was found to be 1.6. With KQGSMNFRFIPVLFPNAKKWHVPT [E20W] the figure was 1.9. On to KQGSMNFRFIPVLFPNAKKPHVPT [E20P], for which the protein stability index was 2.12.

On to KQGSMNFRFIPVLFPNAKKGHVPT [E20G], for which the protein stability index was 2.24.

Turning to KQGSMNFRFIPVLFPNAKKCHVPT [E20C], the protein stability index was 1.85. With KQGSMNFRFIPVLFPNAKKKHVPT [E20K], the protein stability index worked out at 1.68.

With KQGSMNFRFIPVLFPNAKKAHVPT [E20A], the protein stability index came out at 2.11.

Regarding KQGSMNFRFIPVLFPNAKKDHVPT [E20D], the protein stability index was 2.33. For KQGSMNFRFIPVLFPNAKKEGVPT [H21G] the value was 2.3. For KQGSMNFRFIPVLFPNAKKEQVPT [H21Q] the value was 1.78; for KQGSMNFRFIPVLFPNAKKEYVPT [H21Y], 1.82.

On to KQGSMNFRFIPVLFPNAKKEIVPT [H21I], for which the protein stability index turned out to be 1.59.

Regarding KQGSMNFRFIPVLFPNAKKEMVPT [H21M], the protein stability index is 2.13. For KQGSMNFRFIPVLFPNAKKENVPT [H21N] the value was 2.21; for KQGSMNFRFIPVLFPNAKKEEVPT [H21E], 2.47. For KQGSMNFRFIPVLFPNAKKEKVPT [H21K] the value was 1.77.

Turning to KQGSMNFRFIPVLFPNAKKETVPT [H21T], the protein stability index amounted to 2.15. For KQGSMNFRFINVLFPNAKKEHVPT [P11N] the value was 1.7; for KQGSMNFRFIKVLFPNAKKEHVPT [P11K], 2.02; for KQGSMNFRFIGVLFPNAKKEHVPT [P11G], 2.35. For KQGSMNFRFIWVLFPNAKKEHVPT [P11W] the value was 2.25. With KQGSMNFRFICVLFPNAKKEHVPT [P11C] the figure was 3.83.

With KQGSMNFRFIRVLFPNAKKEHVPT [P11R], the protein stability index turned out to be 2.14. Consider KQGSMNFRFIDVLFPNAKKEHVPT [P11D], for which the protein stability index was 2.37. For KQGSMNFRFILVLFPNAKKEHVPT [P11L] the value was 2.75.
